Laboratory results from US20140087995A1 (published 2014).
Numbered stars: 1 amine (or outer) side, 2 acyl side, 3 side chain; on linkers, the order of the positions; unused ones are H or OH. Bridge positions count the residues as written; N and C are the ends. Square brackets hold non-standard residues; d marks the D form. Side chains are listed from the residue outwards. Ends that are not written are not given here. * marks the point of attachment. C20 diacid = O=C(O)CCCCCCCCCCCCCCCCCCC(=O)*; γGlu = O=C(O)[C@H](CCC(=O)[*:2])N[*:1]

T1: human amylin receptor (amylin 3(a) receptor: human calcitonin receptor co-expressed with RAMP-3) (human, UniProt P30988 25-474; O60896 24-148, limits assumed)
T1 construct: whole, on cells; Used as cell membranes prepared from the Amylin 3(a)/CRE-luc BHK cells (Assay V); also called hAmylin-R; hAmylinR
T1 sequence (looked up) 1: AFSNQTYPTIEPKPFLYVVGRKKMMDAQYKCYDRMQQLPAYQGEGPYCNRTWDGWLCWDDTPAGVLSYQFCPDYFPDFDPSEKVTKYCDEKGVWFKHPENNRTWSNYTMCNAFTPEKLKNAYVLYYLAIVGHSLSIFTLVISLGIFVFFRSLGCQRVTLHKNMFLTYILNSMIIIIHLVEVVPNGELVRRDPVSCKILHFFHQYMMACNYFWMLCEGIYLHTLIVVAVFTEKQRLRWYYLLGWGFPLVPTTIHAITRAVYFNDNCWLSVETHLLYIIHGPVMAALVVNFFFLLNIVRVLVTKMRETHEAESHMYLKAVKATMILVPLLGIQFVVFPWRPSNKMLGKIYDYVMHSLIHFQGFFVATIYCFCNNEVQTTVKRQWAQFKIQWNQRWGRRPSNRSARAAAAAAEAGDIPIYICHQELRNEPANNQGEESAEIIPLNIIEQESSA
T1 sequence (looked up) 2: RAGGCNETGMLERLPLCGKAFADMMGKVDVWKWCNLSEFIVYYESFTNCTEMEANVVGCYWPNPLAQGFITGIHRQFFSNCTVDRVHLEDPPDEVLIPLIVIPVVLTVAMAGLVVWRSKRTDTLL


target: T1, human amylin receptor (amylin 3(a) …); assay: SPA displacement of 125I-rat amylin, hAmylin 3(a) receptor membranes
Method in brief: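 One-site competition analysis of SPA counts yielded IC₅₀ as a measure of affinity. Membranes were at 35 ng/μL final; incubation was 120 min at 25° C, pH 7.4.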

Binder	IC50 [pM]
K([γGlu-γGlu-C20 diacid])CNTATCATQRLAEFLRHSSPNFGAIPSSTNVGPNTF-NH2 (disulfide 2-7; N-terminus assumed; SMILES CC[C@H](C)[C@H](NC(=O)[C@H](C)NC(=O)CNC(=O)[C@H](Cc1ccccc1)NC(=O)[C@H](CC(N)=O)NC(=O)[C@@H]1CCCN1C(=O)[C@H](CO)NC(=O)[C@H](CO)NC(=O)[C@H](Cc1c[nH]cn1)NC(=O)[C@H](CCCNC(=N)N)NC(=O)[C@H](CC(C)C)NC(=O)[C@H](Cc1ccccc1)NC(=O)[C@H](CCC(=O)O)NC(=O)[C@H](C)NC(=O)[C@H](CC(C)C)NC(=O)[C@H](CCCNC(=N)N)NC(=O)[C@H](CCC(N)=O)NC(=O)[C@@H](NC(=O)[C@H](C)NC(=O)[C@@H]1CSSC[C@H](NC(=O)[C@@H](N)CCCCNC(=O)CC[C@H](NC(=O)CC[C@H](NC(=O)CCCCCCCCCCCCCCCCCCC(=O)O)C(=O)O)C(=O)O)C(=O)N[C@@H](CC(N)=O)C(=O)N[C@@H]([C@@H](C)O)C(=O)N[C@@H](C)C(=O)N[C@@H]([C@@H](C)O)C(=O)N1)[C@@H](C)O)C(=O)N1CCC[C@H]1C(=O)N[C@@H](CO)C(=O)N[C@@H](CO)C(=O)N[C@H](C(=O)N[C@@H](CC(N)=O)C(=O)N[C@H](C(=O)NCC(=O)N1CCC[C@H]1C(=O)N[C@@H](CC(N)=O)C(=O)N[C@H](C(=O)N[C@@H](Cc1ccccc1)C(N)=O)[C@@H](C)O)C(C)C)[C@@H](C)O)	152
K([γGlu-γGlu-C20 diacid])CNTATCATQRLAEFLRHSSPNFGAIPSSTNVGPHTY-NH2 (disulfide 2-7 (inferred))	377
K([γGlu-γGlu-C20 diacid])CNTATCATQRLAEFLRHSSPNFGAIPSSTNVGPETP-NH2 (disulfide 2-7; N-terminus assumed; SMILES CC[C@H](C)[C@H](NC(=O)[C@H](C)NC(=O)CNC(=O)[C@H](Cc1ccccc1)NC(=O)[C@H](CC(N)=O)NC(=O)[C@@H]1CCCN1C(=O)[C@H](CO)NC(=O)[C@H](CO)NC(=O)[C@H](Cc1c[nH]cn1)NC(=O)[C@H](CCCNC(=N)N)NC(=O)[C@H](CC(C)C)NC(=O)[C@H](Cc1ccccc1)NC(=O)[C@H](CCC(=O)O)NC(=O)[C@H](C)NC(=O)[C@H](CC(C)C)NC(=O)[C@H](CCCNC(=N)N)NC(=O)[C@H](CCC(N)=O)NC(=O)[C@@H](NC(=O)[C@H](C)NC(=O)[C@@H]1CSSC[C@H](NC(=O)[C@@H](N)CCCCNC(=O)CC[C@H](NC(=O)CC[C@H](NC(=O)CCCCCCCCCCCCCCCCCCC(=O)O)C(=O)O)C(=O)O)C(=O)N[C@@H](CC(N)=O)C(=O)N[C@@H]([C@@H](C)O)C(=O)N[C@@H](C)C(=O)N[C@@H]([C@@H](C)O)C(=O)N1)[C@@H](C)O)C(=O)N1CCC[C@H]1C(=O)N[C@@H](CO)C(=O)N[C@@H](CO)C(=O)N[C@H](C(=O)N[C@@H](CC(N)=O)C(=O)N[C@H](C(=O)NCC(=O)N1CCC[C@H]1C(=O)N[C@@H](CCC(=O)O)C(=O)N[C@H](C(=O)N1CCC[C@H]1C(N)=O)[C@@H](C)O)C(C)C)[C@@H](C)O)	533

Continued by falling IC50, values first:

IC50 [pM]	Binder
426	{C20 diacid-γGlu}-GRCNTATCATQRLAAFLRHSSPNFGAIPSSTNVGHNTY-NH2 (disulfide 3-8; SMILES CC[C@H](C)[C@H](NC(=O)[C@H](C)NC(=O)CNC(=O)[C@H](Cc1ccccc1)NC(=O)[C@H](CC(N)=O)NC(=O)[C@@H]1CCCN1C(=O)[C@H](CO)NC(=O)[C@H](CO)NC(=O)[C@H](Cc1c[nH]cn1)NC(=O)[C@H](CCCNC(=N)N)NC(=O)[C@H](CC(C)C)NC(=O)[C@H](Cc1ccccc1)NC(=O)[C@H](C)NC(=O)[C@H](C)NC(=O)[C@H](CC(C)C)NC(=O)[C@H](CCCNC(=N)N)NC(=O)[C@H](CCC(N)=O)NC(=O)[C@@H](NC(=O)[C@H](C)NC(=O)[C@@H]1CSSC[C@H](NC(=O)[C@H](CCCNC(=N)N)NC(=O)CNC(=O)CC[C@H](NC(=O)CCCCCCCCCCCCCCCCCCC(=O)O)C(=O)O)C(=O)N[C@@H](CC(N)=O)C(=O)N[C@@H]([C@@H](C)O)C(=O)N[C@@H](C)C(=O)N[C@@H]([C@@H](C)O)C(=O)N1)[C@@H](C)O)C(=O)N1CCC[C@H]1C(=O)N[C@@H](CO)C(=O)N[C@@H](CO)C(=O)N[C@H](C(=O)N[C@@H](CC(N)=O)C(=O)N[C@H](C(=O)NCC(=O)N[C@@H](Cc1c[nH]cn1)C(=O)N[C@@H](CC(N)=O)C(=O)N[C@H](C(=O)N[C@@H](Cc1ccc(O)cc1)C(N)=O)[C@@H](C)O)C(C)C)[C@@H](C)O)
365	K([γGlu-γGlu-C20 diacid])CNTATCATQRLA[dD]FLRHSSPNFGAIPSSTNVGSRTY-NH2 (disulfide 2-7; N-terminus assumed; SMILES CC[C@H](C)[C@H](NC(=O)[C@H](C)NC(=O)CNC(=O)[C@H](Cc1ccccc1)NC(=O)[C@H](CC(N)=O)NC(=O)[C@@H]1CCCN1C(=O)[C@H](CO)NC(=O)[C@H](CO)NC(=O)[C@H](Cc1c[nH]cn1)NC(=O)[C@H](CCCNC(=N)N)NC(=O)[C@H](CC(C)C)NC(=O)[C@H](Cc1ccccc1)NC(=O)[C@@H](CC(=O)O)NC(=O)[C@H](C)NC(=O)[C@H](CC(C)C)NC(=O)[C@H](CCCNC(=N)N)NC(=O)[C@H](CCC(N)=O)NC(=O)[C@@H](NC(=O)[C@H](C)NC(=O)[C@@H]1CSSC[C@H](NC(=O)[C@@H](N)CCCCNC(=O)CC[C@H](NC(=O)CC[C@H](NC(=O)CCCCCCCCCCCCCCCCCCC(=O)O)C(=O)O)C(=O)O)C(=O)N[C@@H](CC(N)=O)C(=O)N[C@@H]([C@@H](C)O)C(=O)N[C@@H](C)C(=O)N[C@@H]([C@@H](C)O)C(=O)N1)[C@@H](C)O)C(=O)N1CCC[C@H]1C(=O)N[C@@H](CO)C(=O)N[C@@H](CO)C(=O)N[C@H](C(=O)N[C@@H](CC(N)=O)C(=O)N[C@H](C(=O)NCC(=O)N[C@@H](CO)C(=O)N[C@@H](CCCNC(=N)N)C(=O)N[C@H](C(=O)N[C@@H](Cc1ccc(O)cc1)C(N)=O)[C@@H](C)O)C(C)C)[C@@H](C)O)
217	{C20 diacid-γGlu}-GRCNTATCATQRLAHFLRHSSPNFGAIPSSTNVGPNTY-NH2 (disulfide 3-8; SMILES CC[C@H](C)[C@H](NC(=O)[C@H](C)NC(=O)CNC(=O)[C@H](Cc1ccccc1)NC(=O)[C@H](CC(N)=O)NC(=O)[C@@H]1CCCN1C(=O)[C@H](CO)NC(=O)[C@H](CO)NC(=O)[C@H](Cc1c[nH]cn1)NC(=O)[C@H](CCCNC(=N)N)NC(=O)[C@H](CC(C)C)NC(=O)[C@H](Cc1ccccc1)NC(=O)[C@H](Cc1c[nH]cn1)NC(=O)[C@H](C)NC(=O)[C@H](CC(C)C)NC(=O)[C@H](CCCNC(=N)N)NC(=O)[C@H](CCC(N)=O)NC(=O)[C@@H](NC(=O)[C@H](C)NC(=O)[C@@H]1CSSC[C@H](NC(=O)[C@H](CCCNC(=N)N)NC(=O)CNC(=O)CC[C@H](NC(=O)CCCCCCCCCCCCCCCCCCC(=O)O)C(=O)O)C(=O)N[C@@H](CC(N)=O)C(=O)N[C@@H]([C@@H](C)O)C(=O)N[C@@H](C)C(=O)N[C@@H]([C@@H](C)O)C(=O)N1)[C@@H](C)O)C(=O)N1CCC[C@H]1C(=O)N[C@@H](CO)C(=O)N[C@@H](CO)C(=O)N[C@H](C(=O)N[C@@H](CC(N)=O)C(=O)N[C@H](C(=O)NCC(=O)N1CCC[C@H]1C(=O)N[C@@H](CC(N)=O)C(=O)N[C@H](C(=O)N[C@@H](Cc1ccc(O)cc1)C(N)=O)[C@@H](C)O)C(C)C)[C@@H](C)O)
114	{C20 diacid-γGlu}-GRCNTATCATQRLAAFLRHSSPNFGAIPSSTNVGPNTY-NH2 (disulfide 3-8)
